Data set [1] concerns the molecule itself. Put plainly: SEC.
The data set “native gel or EMSA” concerns the molecule itself. Nature of the data set: native gel or EMSA.
Data set [2] deals with the molecule itself. Put plainly: SEC. The source holds these as a separate data set.

The record followed here is publication PMC6914362 (Nature, 2019).

Changes are numbered by the printed parent chain. In names and notes the source's numbering stands.

B1: SHMT2ΔN (residues 18-504), dimeric (PLP-free) form (enzyme, human, UniProt P34897 18-504, looked up)
chain: QLVRMAIRAQHSNAAQTQTGEANRGWTGQESLSDSDPEMWELLQREKDRQCRGLELIASENFCSRAALEALGSCLNNKYSEGYPGKRYYGGAEVVDEIELLCQRRALEAFDLDPAQWGVNVQPYSGSPANLAVYTALLQPHDRIMGLDLPDGGHLTHGYMSDVKRISATSIFFESMPYKLNPKTGLIDYNQLALTARLFRPRLIIAGTSAYARLIDYARMREVCDEVKAHLLADMAHISGLVAAKVIPSPFKHADIVTTTTHKTLRGARSGLIFYRKGVKAVDPKTGREIPYTFEDRINFAVFPSLQGGPHNHAIAAVAVALKQACTPMFREYSLQVLKNARAMADALLERGYSLVSGGTDNHLVLVDLRPKGLDGARAERVLELVSITANKNTCPGDRSAITPGGLRLGAPALTSRQFREDDFRRVVDFIDEGVNIGLEVKSKTAKLQDFKSFLLKDSETSQRLANLRQRVEQFARAFPMPGFDEH
Take B1: the “stoichiometry N” value in “SEC [1]” was 2.

B2: Flag-HA epitope-tagged SHMT2ΔN (MEFs) (enzyme, human, UniProt P34897 18-504, looked up)
chain: B1 chain
Turning to B2, the “stoichiometry N” value in “native gel or EMSA” amounted to 2.

B3: SHMT2ΔN (residues 18-504), PLP-bound tetramer (enzyme, human, UniProt P34897 18-504, looked up)
chain: B1 chain
modifications: pyridoxal-5'-phosphate (PLP) bound, internal aldimine linkage; PLP acceptor Lys280
With B3, the “stoichiometry N” value in the data set “SEC [1]” amounted to 4.

B4: SHMT2ΔN+A285T (enzyme, human, UniProt P34897 18-504, looked up)
chain: B1 chain with A268T
On to B4, for which the “stoichiometry N” value in the data set “SEC [1]” was 2.

B5: SHMT1 wild type (enzyme, human, UniProt P34896 1-483, looked up)
chain: MTMPVNGAHKDADLWSSHDKMLAQPLKDSDVEVYNIIKKESNRQRVGLELIASENFASRAVLEALGSCLNNKYSEGYPGQRYYGGTEFIDELETLCQKRALQAYKLDPQCWGVNVQPYSGSPANFAVYTALVEPHGRIMGLDLPDGGHLTHGFMTDKKKISATSIFFESMPYKVNPDTGYINYDQLEENARLFHPKLIIAGTSCYSRNLEYARLRKIADENGAYLMADMAHISGLVAAGVVPSPFEHCHVVTTTTHKTLRGCRAGMIFYRKGVKSVDPKTGKEILYNLESLINSAVFPGLQGGPHNHAIAGVAVALKQAMTLEFKVYQHQVVANCRALSEALTELGYKIVTGGSDNHLILVDLRSKGTDGGRAEKVLEACSIACNKNTCPGDRSALRPSGLRLGTPALTSRGLLEKDFQKVAHFIHRGIELTLQIQSDTGVRATLKEFKERLAGDKYQAAVQALREEVESFASLFPLPGLPDF
For B5, in the data set “SEC [2]”, the “stoichiometry N” value worked out at 4.
